Values joined by “and” are separate entries in the source; they are usually repeats but may differ in a detail not shown here. Equal entries are not always repeated.
B1: Streptococcus pneumoniae NrdR (natural protein, Streptococcus pneumoniae TIGR4, UniProt P67318 1-157, looked up)
chain: MRCPKCGATKSSVIDSRQAEEGNTIRRRRECDECQHRFTTYERVEERTLVVVKKDGTREQFSRDKIFNGIIRSAQKRPVSSDEINMVVNRIEQKLRGRNENEIQSEDIGSLVMEELAELDEITYVRFASVYRSFKDVSELESLLQQITQSSKKKKER
notes: NrdR, transcriptional repressor of ribonucleotide reductase genes, S. pneumoniae TIGR4; the nrdR gene (SP_1713, AAK75791) cloned in pET30a(+) between NdeI and XhoI; molecular mass including the hexa-histidine tag 19.4 kDa; Oligomeric state depends on the nucleotides added (none, ATP, dATP + ATP); also called SpnNrdR; source: E. coli BL21(DE3), purified (HisTrap FF Ni-Sepharose, desalting); not …
B2: Listeria monocytogenes NrdR (natural protein, UniProt B8DHI6 1-154, looked up)
chain: MRCPTCQYNGTRVVDSRPADDGNSIRRRRECEKCGFRFTTFEKVEESPLIVVKKDGAREEFAREKVRRGLIRACEKRPVSAEQIEEIVNEVERELRNIGDSEIASDLIGEKVMNKLANLDEVAYVRFASVYRQFKDISVFVEELKDLMEKNKDR
notes: NrdR, transcriptional repressor of ribonucleotide reductase genes, L. monocytogenes serotype 1/2a str; S10403S; molecular mass including the hexa-histidine tag 19 kDa; Oligomeric state depends on the nucleotides added; also called LmoNrdR; L. monocytogenes NrdR; source: E. coli BL21(DE3), purified (HisTrap FF Ni-Sepharose, desalting); not shown: His6, C-terminal, kept

Columns and labels:
[1] = target: the molecule itself; assay: SEC; SpnNrdR 50 uM incubated with 0.5 mM ATP, 0.5 mM dATP and 2.5 mM MgCl; ATP and dATP 0.1 mM each in the buffer; Superdex S200 Increase, 4 C; 25 mM HEPES pH 7.2, 2.5 mM MgCl2, 15% glycerol, 250 mM NaCl, 0.1 mM TCEP
[2] = target: the molecule itself; assay: SEC; LmoNrdR 50 uM incubated with dATP + ATP and 5 mM MgCl; 0.1 mM of each nucleotide in the buffer; Superdex S200 Increase, 4 C; 25 mM Bis-Tris Propane pH 6.5, 5% glycerol, 5 mM MgCl2, 100 mM KCl, 1 mM DTT
[3] = target: the molecule itself; assay: SEC; LmoNrdR 50 uM, no nucleotides in protein or buffer (apo); Superdex S200 Increase, 4 C; 25 mM Bis-Tris Propane pH 6.5, 5% glycerol, 5 mM MgCl2, 100 mM KCl, 1 mM DTT; size from a calibration curve of globular standards
[4] = target: the molecule itself; assay: SEC; LmoNrdR 50 uM incubated with 1 mM ATP and 5 mM MgCl; 0.2 mM ATP in the buffer; Superdex S200 Increase, 4 C; 25 mM Bis-Tris Propane pH 6.5, 5% glycerol, 5 mM MgCl2, 100 mM KCl, 1 mM DTT

Row | Protein | stoichiometry N [1] | stoichiometry N [2] | stoichiometry N [3] | stoichiometry N [4]
1 | B1 | 4 | – | – | –
2 | B2 | – | 4 | 2 and 4 | 8

From PMC12051234, “NrdR in Streptococcus and Listeria spp.: DNA Helix Phase Dependence of the Bacterial Ribonucleotide Reductase Repressor” (Molecular Microbiology, 2024)
